The record followed here is PMC11448365 (Genes to Cells, 2023).

This data set deals with the molecule itself. The data set is described as follows: mass photometry.

B1: Irgb6-WT (wild-type Irgb6) (enzyme, mouse)
chain: MAWASSFDAFFKNFKRESKIISEYDITLIMTYIEENKLQKAVSVIEKVLRDIESAPLHIAVTGETGAGKSTFINTLRGVGHEEKGAAPTGAIETTMKRTPYPHPKLPNVTIWDLPGIGTTNFTPQNYLTEMKFGEYDFFIIISATRFKENDAQLAKAIAQMGMNFYFVRTKIDSDLDNEQKFKPKSFNKEEVLKNIKDYCSNHLQESLDSEPPVFLVSNVDISKYDFPKLETKLLQDLPAHKRHVFSLSLQSLTEATINYKRDSLKQKVFLEAMKAGALATIPLGGMISDILENLDETFNLYRSYFGLDDASLENIAQDLNMSVDDFKVHLRFPHLFAEHNDESLEDKLFKYIKHISSVTGGPVAAVTYYRMAYYLQNLFLDTAANDAIALLNSKALFEKKVGPYISEPPEYWEA
Consider B1, for which the stoichiometry N – broadly, a count of units in the complex or per binding partner – was 2.
